The target of the experiment is SARS-CoV-2 receptor-binding domain (ancestral RBD) (SARS-CoV-2 (ancestral), UniProt P0DTC2). As to the kind of experiment: ELISA.

B1: CAB-I12 (antibody, V domains shown)
VH: QVQLVQSGAEVKKPGSSVKVSCKASGDTFSRYSISWVRQAPGQGLEWMGRIIPMFATANYAQKFQGRVTITADKTTSIAYMELSSLRSEDTAVYYCARANYYYESGGYHFDNWGQGTLVTVSS
VL: EIVLTQSPGTLSLSPGERATLSCRASQSVGSSYLAWYQQKPGQAPRLLIYGASTRATGIPHRFSGSGSGTDFTLTISRLEPEDFAVYYCQQYHNSPRTFGQGTKV
B1: the binding result is given as “binds”.

Source of the values: PMC9742198 (Immunity, 2022).
